In one experiment the target is DogTag-mClover3. In words: cell-based or functional assay.
A further experiment concerns the target MBP-DogTag. In words: cell-based or functional assay.
The next experiment has as its target SUMO-DogTag. The experiment can be described thus: cell-based or functional assay.
For a further experiment, the target named is AffiHER2-DogTag. The experiment can be described thus: cell-based or functional assay.
Another experiment addresses IMX-DogTag. In words: cell-based or functional assay.
Experiment [1] has as its target DogTag-HaloTag7SS fusion protein. In words: cell-based or functional assay.
The target in the next experiment is T1, biotinylated SnoopLigase (biotin on the AP peptide (BirA biotinylation)).
T1 construct: Captured or immobilised on streptavidin-agarose in the elution experiments; also called Biotin-SnoopLigase; biotin-SnoopLigase; not shown: N-terminal His6-tag and flexible GS-rich linker; AP, substrate peptide for BirA biotinylation
T1 chain: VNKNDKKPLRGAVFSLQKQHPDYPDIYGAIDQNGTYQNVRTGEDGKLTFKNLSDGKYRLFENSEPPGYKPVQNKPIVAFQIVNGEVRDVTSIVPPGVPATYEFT
The experiment can be described thus: competition elution at 37 °C from biotin-SnoopLigase on streptavidin-agarose; SDS-PAGE.

Results on six molecules are retold here after patent US20200115422A1 (OXFORD UNIVERSITY INNOVATION, published 2020).

Consider HaloTag7SS-SnoopTagJr, for which the Percentage of DogTag partner reacted came to 96.1% with DogTag-mClover3, 97% with MBP-DogTag, 99.7% with SUMO-DogTag and 100% in the experiment with AffiHER2-DogTag. The Percentage of SnoopTagJr partner reacted with DogTag-mClover3 was determined as 98%; with SUMO-DogTag, 99%; with AffiHER2-DogTag, 99.3%.
As to SnoopTagJr-mEGFP, the Percentage of DogTag partner reacted in the experiment with DogTag-mClover3 was determined as 82.3%; with MBP-DogTag, 87.8%; with SUMO-DogTag it was 99.1%; in the experiment with AffiHER2-DogTag, 99.9%. Also, the Percentage of SnoopTagJr partner reacted in the experiment with DogTag-mClover3 amounted to 89.4%; with MBP-DogTag, 99.7%; in the experiment with SUMO-DogTag, 100%; with AffiHER2-DogTag, 99.9%.
Take MBP-SnoopTagJr: the Percentage of DogTag partner reacted with DogTag-mClover3 is 85.4%; with MBP-DogTag, 95%; with SUMO-DogTag, 99%; with AffiHER2-DogTag, 100%. Moreover, the values for the Percentage of SnoopTagJr partner reacted in the experiment with DogTag-mClover3, in the experiment with SUMO-DogTag and with AffiHER2-DogTag were 79.5%, 99.1% and 93.3%, respectively.
The molecule SnoopTagJr-MBP returned a reaction yield with IMX-DogTag of 96%.
For SnoopTagJr-AffiHER2, the Percentage of DogTag partner reacted in the experiment with DogTag-mClover3 was 94%; with MBP-DogTag, 98.4%; with SUMO-DogTag, 99.9%; with AffiHER2-DogTag, 99.9%. Moreover, the Percentage of SnoopTagJr partner reacted came out at 99.8% with DogTag-mClover3, 100% with MBP-DogTag, 99.9% with SUMO-DogTag and 100% in the experiment with AffiHER2-DogTag. Further, the reaction yield was found to be 90% in experiment [1] and 99% with SUMO-DogTag.

B1: SnoopTagJr:DogTag competitor peptide (peptide)
peptide 1: KLGSIEFIKVNK
peptide 2: DIPATYEFTDGKHYITNEPIPPK
modifications: not fully specified; Asn 17 joined by an isopeptide bond to Lys 9 of SnoopTagJr; Lys 9 joined by an isopeptide bond to Asn 17 of DogTag
notes: Made from SUMO-DogTag and synthetic SnoopTagJr peptide with immobilised HaloTag7-SnoopLigase, then cut from SUMO by Ulp1; also called SnoopTagJr:DogTag peptide conjugate; DogTag:SnoopTagJr peptide
As to B1, the binding result with biotinylated SnoopLigase is on record as “binds”.
